Results: US20210155689A1 (SHANGHAI PHARMAEXPLORER, published 2021)

Assays:
[1] = target: T1, human LAG-3 on cells (HEK293-hLAG-3 stable cell line) (human, UniProt P18627 23-525); test: FACS, HEK293-hLAG-3, antibody 40.000 nM
T1 sequence: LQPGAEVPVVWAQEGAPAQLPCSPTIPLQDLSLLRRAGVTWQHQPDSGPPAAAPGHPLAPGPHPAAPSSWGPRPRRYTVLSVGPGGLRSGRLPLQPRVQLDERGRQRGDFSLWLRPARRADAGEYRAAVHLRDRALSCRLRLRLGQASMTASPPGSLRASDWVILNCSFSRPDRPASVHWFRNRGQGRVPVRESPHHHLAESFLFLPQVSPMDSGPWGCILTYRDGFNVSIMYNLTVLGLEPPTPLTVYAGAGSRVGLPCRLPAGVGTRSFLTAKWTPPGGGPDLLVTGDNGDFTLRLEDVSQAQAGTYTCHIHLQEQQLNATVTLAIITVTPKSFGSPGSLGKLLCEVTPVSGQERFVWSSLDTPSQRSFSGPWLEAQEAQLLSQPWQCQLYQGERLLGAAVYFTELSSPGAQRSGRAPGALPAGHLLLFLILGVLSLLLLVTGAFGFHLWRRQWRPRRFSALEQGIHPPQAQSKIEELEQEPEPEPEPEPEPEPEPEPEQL
Text: The pIRES plasmid with the monkey-derived full-length gene was transfected into the HEK293 cell line to construct a HEK293 stable cell line containing monkey LAG-3 (herein referred to as HEK293-cLAG-3 stable cell line). The HEK293-hLAG-3 stable cell line and HEK293-cLAG-3 stable cell line were expanded in a T-75 cell culture flask to a 90% confluence. The medium was aspirated, and the cells were washed with HBSS (Hanks' Balanced Salt Solution) 1-2 times, then treated with a enzyme-free cell dissociation fluid (Versene solution: Life technology) and the cells were collected. The cells were washed with HBSS buffer for 1-2 times. After counted, the cells were diluted with HBSS to 1-2×10⁶ cells per ml, added with 1% goat serum blocking solution, incubated on ice for 20-30 minutes, and then washed with HBSS for 2 times by centrifugation. The collected cells were suspended in the FACS buffer (HBSS+1% BSA) to 2×10⁶ cells/ml, added as 100 microliters per well to a 96-well FACS reaction plate, added with 100 microliters per well of the antibody sample to be tested, incubated on ice for 1-2 hours. The plate was washed twice with the FACS buffer by centrifugation, added with 100 microliters of fluorescent (Alexa 488)-labeled secondary antibodies per well, and incubated on ice for 0.5-1.0 hours. The plate was washed 2-3 times with FACS buffer by centrifugation, added with 100 μl fixative solution (4% Paraformaldehyde) per well to suspend the cells. 5-10 minutes later, it was washed 1-2 times with FACS buffer by centrifugation. The cells were suspended with 100 microliters of FACS buffer, FACS (FACSCalibur, BD) was used for detection and the results were analyzed.

[2] = target: T2, LAG-3-hFc protein (human LAG-3 extracellular region with hFc tag) (human, UniProt P18627 23-450); test: FACS, inhibition of LAG-3-hFc binding to MHC II on Raji cells, antibody 200.000 nM
T2 construct: also called hLAG-3-hFc; LAG-3 protein; not shown: human IgG Fc fragment (hFc) of the pCpC vector
T2 sequence: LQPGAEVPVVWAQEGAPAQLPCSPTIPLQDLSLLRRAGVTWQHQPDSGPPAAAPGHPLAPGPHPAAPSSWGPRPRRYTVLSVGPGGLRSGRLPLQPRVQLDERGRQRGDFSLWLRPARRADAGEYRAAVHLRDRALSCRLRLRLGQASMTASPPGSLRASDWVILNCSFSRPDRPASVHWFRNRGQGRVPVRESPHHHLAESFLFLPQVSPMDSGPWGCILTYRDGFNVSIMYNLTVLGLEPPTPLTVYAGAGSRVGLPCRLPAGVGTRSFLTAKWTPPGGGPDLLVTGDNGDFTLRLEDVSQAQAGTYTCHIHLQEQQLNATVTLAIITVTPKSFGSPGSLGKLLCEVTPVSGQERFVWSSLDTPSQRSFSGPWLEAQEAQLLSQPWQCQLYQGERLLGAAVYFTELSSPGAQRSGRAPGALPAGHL
Experimental: The FACS reaction plate incubating the Raji cells was centrifuged to discard the supernatant. The above mixture was added as 100 μl per well to Raji cells and incubated on ice for 1-2 hours. The plate was washed twice with blocking solution (PBS, 2% fetal bovine serum) by centrifugation, added with 100 microliters of fluorescent (Alexa 488)-labeled secondary antibodies per well, and incubated on ice for 1.0 hours. The plate was washed 2-3 times by centrifugation with blocking solution (PBS, 2% fetal bovine serum), added with 100 microliters of PBS per well to suspend cells, and detected using FACS (FACS Calibur, BD) and the results were analyzed. Wherein, the IgG control was murine IgG, and the data in the table is the inhibition rate (%).

[3] = target: T3, hFc tagged monkey LAG-3 protein (cLAG-3-hFc protein) (monkey; human); test: ELISA, cLAG-3-hFc coated; 0.0667 nM
T3 construct: Made in HEK293 cells; also called monkey LAG-3 extracellular domain protein; not shown: human IgG Fc fragment (hFc) of the pCpC vector
T3 chain: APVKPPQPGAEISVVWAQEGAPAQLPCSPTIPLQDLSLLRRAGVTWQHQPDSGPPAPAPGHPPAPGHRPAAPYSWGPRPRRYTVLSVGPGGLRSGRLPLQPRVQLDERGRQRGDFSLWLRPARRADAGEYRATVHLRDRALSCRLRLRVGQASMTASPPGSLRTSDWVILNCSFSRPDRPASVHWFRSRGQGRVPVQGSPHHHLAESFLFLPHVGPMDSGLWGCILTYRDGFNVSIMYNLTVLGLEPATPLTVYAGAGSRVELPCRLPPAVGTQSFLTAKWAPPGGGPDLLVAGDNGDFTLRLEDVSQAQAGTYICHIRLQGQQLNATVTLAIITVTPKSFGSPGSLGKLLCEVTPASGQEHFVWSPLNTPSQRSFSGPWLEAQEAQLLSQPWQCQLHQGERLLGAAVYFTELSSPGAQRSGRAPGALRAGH
Experimental: The plate was sealed with plastic film and incubated overnight at 4° C. The plate was washed 2 times with the plate washing solution (PBS+0.01% Tween20) on the next day, and added with the blocking solution (PBS+0.01% Tween20+1% BSA) and blocked at room temperature for 1-2 hours. The blocking solution was poured out, and the plate was added with 50-100 μl of the antibody sample to be tested to each well, incubated at 37° C. for 1-2 hours, and washed 2-3 times with a plate washing solution (PBS+0.01% Tween20). HRP (horseradish peroxidase) labeled secondary antibody was added, and the plate was incubated at 37° C. for 1-2 hours, and washed 2-3 times with a plate washing solution (PBS+0.01% Tween20). 100 μl of TMB substrate was added to each well. After incubated at room temperature for 15-30 minutes, the plate was added with 100 μl of stop solution (1.0N HCl) to each well.

B1: 556F6B8 mouse-human chimeric antibody (antibody, V domains shown)
VH: RVQLKQSGPGLVQPSQSLSITCTVSGFSLIKYGVHWVRQSPGEGLEWLGVIWRGGITDYNAAFMSRLSITKDNSKSQVFFKMNSLQADDTAIYYCAKWDGPLAMDYWGQGTSVTVSS
VL: DIVMTQSHKFLSTSVGDRVSITCKASQDVGTTVAWYQQKPGQSPKLLIYWASTRHTGVPDRFTGSGSGTDFTLTISNVQSEDLADYFCQQYSSYPYTFGGGTKLEIK
notes: also called mAb123-556F6B8; 556F8B8
**Q.** For B1, which Mean fluorescence intensity [1] is on record?
**A.** The Mean fluorescence intensity was 123.

**Q.** What about the “Inhibition rate (%)” value [2] of the same binder?
**A.** The value was 95.2%.

B2: 556F6B8 (LAG-3 mouse-human chimeric antibody) (antibody, V domains shown)
VH: RVQLKQSGPGLVQPSQSLSITCTVSGFSLIKYGVHWVRQSPGEGLEWLGVIWRGGITDYNAAFMSRLSITKDNSKSQVFFKMNSLQADDTAIYYCAKWDGPLAMDYWGQGTSVTVSS
VL: DIVMTQSHKFLSTSVGDRVSITCKASQDVGTTVAWYQQKPGQSPKLLIYWASTRHTGVPDRFTGSGSGTDFTLTISNVQSEDLADYFCQQYSSYPYTFGGGTKLEIK
notes: also called 556F8B8
**Q.** B2 was tested. Which OD450 [3] did it give?
**A.** The OD450 was 2.43 OD450.

B3: 105F1E10 mouse-human chimeric antibody (antibody, V domains shown)
VH: EVQLQQSGPELVKPGASVKMSCRASGYTFTDFKMHWMKQSHGKSLEWIGYIAPNNGGTAYNQKFRGKATLTVNESSNTAYMELRSLTSEDSAVYYCVDWDDVDYWGQGTTLTVSS
VL: DIKMTQSPSSMYASLGERVTITCKASQDINSYLSWFQQKSGKSPKTLIYRANRLVDGVPSRFSGSGSGQDYSLTISSLEYEDMGIYYCLQYVEFPLTFGAGTKLELK
notes: also called mAb009-105F1E10
**Q.** How did the Mean fluorescence intensity [1] turn out when B3 was run?
**A.** The Mean fluorescence intensity was 146.

**Q.** What about the “Inhibition rate (%)” value [2] of the same binder?
**A.** Its value is 96%.

B4: 405B8H3 (LAG-3 mouse-human chimeric antibody) (antibody, V domains shown)
VH: QVQLQQSGAELVRPGASVTLSCKASGYTFTDYEMHWVKQTPVHGLEWIGATDPETGNSAYNQKFKGKAIMTADKSSSTAYMELRSLTSEDSAVYYCISTGWNDWGQGTSLTVSS
VL: DIKMTQSPSSMYASLGERVTITCKASQDINSYLSWFQQKPGKSPKTLIYRADRLLDGVPSRFSGSGSGQDYSLTISSLEYGDMGIYYCLQYDEFPYTFGGGTKLEIK
notes: also called mouse-human chimeric antibody 405B8H3
**Q.** How did the OD450 [3] turn out when B4 was run?
**A.** Its OD450 is 1.96 OD450.

B5: 405B8H3 mouse-human chimeric antibody (antibody, V domains shown)
VH: QVQLQQSGAELVRPGASVTLSCKASGYTFTDYEMHWVKQTPVHGLEWIGATDPETGNSAYNQKFKGKAIMTADKSSSTAYMELRSLTSEDSAVYYCISTGWNDWGQGTSLTVSS
VL: DIKMTQSPSSMYASLGERVTITCKASQDINSYLSWFQQKPGKSPKTLIYRADRLLDGVPSRFSGSGSGQDYSLTISSLEYGDMGIYYCLQYDEFPYTFGGGTKLEIK
notes: also called mAb103-405B8H3
**Q.** Which results are given for B5?
**A.** Mean fluorescence intensity [1]: 158; Inhibition rate (%) [2]: 95.2%

B6: 105F1E10 (LAG-3 mouse-human chimeric antibody) (antibody, V domains shown)
VH: EVQLQQSGPELVKPGASVKMSCRASGYTFTDFKMHWMKQSHGKSLEWIGYIAPNNGGTAYNQKFRGKATLTVNESSNTAYMELRSLTSEDSAVYYCVDWDDVDYWGQGTTLTVSS
VL: DIKMTQSPSSMYASLGERVTITCKASQDINSYLSWFQQKSGKSPKTLIYRANRLVDGVPSRFSGSGSGQDYSLTISSLEYEDMGIYYCLQYVEFPLTFGAGTKLELK
**Q.** B6 was tested. Which OD450 [3] did it give?
**A.** The OD450 was 1 OD450.

B7: 409B11E12 mouse-human chimeric antibody (antibody, V domains shown)
VH: QVQLQQSGAELVRPGASVTLSCKASGYTFTDYEMHWVKQTTVHGLEWIGATDPETSYSAYNQKFKGKAILTADKSSSTAYMELRSLTSEDSAVYYCIATGWNDWGQGTSLTVSS
VL: DLKMTQSPSSMYASLGERVTITCKASQDINSYLSWFQQKPGKSPKTLIYRANRLLDGVPSRFSGSGSGQDYSLTISSLEYEDMGIYYCLQYDEFPYTFGGGTKLEIK
notes: also called mAb104-409B11E12
**Q.** With B7 as the binder, how does the Mean fluorescence intensity [1] read?
**A.** The Mean fluorescence intensity was 150.

**Q.** What about the “Inhibition rate (%)” value [2] of the same binder?
**A.** Its value is 94.8%.

B8: 409D4E10 (LAG-3 mouse-human chimeric antibody) (antibody, V domains shown)
VH: QVQLQQSGAELVRPGASVTLSCKASGNTFTDYEMHWVKQTPVHGLEWIGATDPETDNTAYNQKFKGKAILTTDKSSSTAYMELRSLTSEDSAVYYCITSGWNDWGQGTSLTVSS
VL: DIKMTQSPSSMYASLGERVTITCKASQDINSYLSWFQQKPGKSPKTLIYRANRLLDGVPSRFSGSGSGQDYSLTISSLEYEDMGIYYCLQYNEFPYTFGGGTKLEIK
**Q.** B8 was tested. Which OD450 [3] did it give?
**A.** Its OD450 is 3.05 OD450.

B9: 409B11E12 (LAG-3 mouse-human chimeric antibody) (antibody, V domains shown)
VH: QVQLQQSGAELVRPGASVTLSCKASGYTFTDYEMHWVKQTTVHGLEWIGATDPETSYSAYNQKFKGKAILTADKSSSTAYMELRSLTSEDSAVYYCIATGWNDWGQGTSLTVSS
VL: DLKMTQSPSSMYASLGERVTITCKASQDINSYLSWFQQKPGKSPKTLIYRANRLLDGVPSRFSGSGSGQDYSLTISSLEYEDMGIYYCLQYDEFPYTFGGGTKLEIK
**Q.** B9 was tested. Which OD450 [3] did it give?
**A.** Its OD450 is 1.91 OD450.

B10: 409D4E10 mouse-human chimeric antibody (antibody, V domains shown)
VH: QVQLQQSGAELVRPGASVTLSCKASGNTFTDYEMHWVKQTPVHGLEWIGATDPETDNTAYNQKFKGKAILTTDKSSSTAYMELRSLTSEDSAVYYCITSGWNDWGQGTSLTVSS
VL: DIKMTQSPSSMYASLGERVTITCKASQDINSYLSWFQQKPGKSPKTLIYRANRLLDGVPSRFSGSGSGQDYSLTISSLEYEDMGIYYCLQYNEFPYTFGGGTKLEIK
notes: also called mAb112-409D4E10
**Q.** How did the Mean fluorescence intensity [1] turn out when B10 was run?
**A.** Its Mean fluorescence intensity is 140.

**Q.** What about the “Inhibition rate (%)” value [2] of the same binder?
**A.** The value was 95.7%.
